Measured values published in patent US20130045267A1, “METHODS OF USING AGENTS THAT MODULATE CLAUDIN EXPRESSION” (priority 2010, published 2013).
Where “and” joins values, the source holds several entries; their conditions need not be identical. Equal values may be shown once.

Experiments:
HSV-1 strain F = test: HSV-1 fluorescent-focus assay in PHK; type: cell-based, Herpes Simplex Virus (HSV)-1; settings: siRNA 100 nM, MOI 0.1, 24 h, n=6
Experimental: Infection studies were performed using the highly virulent HSV-1 strain F (provided by Dr. D.C. Johnson). Twenty-four to 48 h post-transfection with 100 nM claudin-1 or control siRNA, the cells were differentiated in DMEM with 10% heat-inactivated FBS for 24 h. Cells were washed twice with HBSS and infected with HSV-1 strain F at a multiplicity of infection (MOI) of 0.1 in DMEM containing 1% heat-inactivated FBS at 37° C., with rocking every 15 min. After 2 h, the viral inoculum was removed, and the cells were washed 2× with HBSS and incubated in DMEM containing 5% HI-FBS and 0.4% human-γ-globulin (Sigma; final concentration 0.5 mg/ml) for 24 hr to neutralize any extracellular virus.
HSV-infected PHK were washed 2× with PBS and fixed in 4% formaldehyde/PBS for 20 min at room temperature. A polyclonal rabbit anti-HSV-1 (Dako) antibody diluted 1:500 in PBS/1% BSA was placed on the PHK for 1 h at 37° C. followed by Alexa Fluor 488 donkey-anti-rabbit IgG H+L (1:1000, Molecular Probes) and 4′,6-diamidino-2-phenyl-indole, dihydrochloride (DAPI) (1:10,000, Molecular Probes). Coverslips were mounted onto slides with SlowFade (Molecular Probes). […] Images were stored in Portable Network Graphics (PNG) format and analyzed computationally to objectively quantify differences in focal forming units (FFU). […] Cell density was calculated by counting the number of DAPI labeled nuclei, assigned to the blue channel. Images were analyzed using MATLAB to enumerate FFU, and total cell number. […]
The MOI was chosen based on findings from viral titration (0.01 to 10 MOI) studies on differentiated and undifferentiated PHK, respectively, used as negative and positive controls. […] For each sample, six random fields were captured at identical acquisition settings and analyzed computationally to objectively quantify differences in focal forming units (FFU). […] An average of 4.8±0.7 FFU/field were counted in CLDN1 knockdown PHK, while only 2.5±0.5 FFU/field were detected in the control cells (P=0.05; n=6; FIG. 15C). Adapted Fluorospot software was used to semi-quantify differences in dimensions of each FFU. […]

occludin = test: Western blot of occludin after CLDN1 siRNA in PHK; type: cell-based, human; settings: 48 h
Experimental: (§1) PHK were lysed on ice in RIPA lysis buffer (20 mM Tris, 50 mM NaCl, 2 mM EDTA, 2 mM EGTA, 1% sodium deoxycholate, 1% TX-100, and 2% SDS, pH 7.4), with 1:100 Protease Inhibitor Cocktail (Sigma), 1:100 Phosphatase Inhibitor Cocktail ([…] for 30 min at 4° C. The samples were heated at 95° C. for 10 min and then centrifuged at 14,000 rpm for 15 min. Forty μg of protein, determined by BCA (Pierce) in NuPage LDS Sample Buffer (Invitrogen) was applied to 4-12% NuPage Bis-Tris gels (Invitrogen). Electrophoresis was performed under reducing conditions with MES SDS Buffer (Invitrogen). Membranes were incubated in blotting solution (5% non-fat dry milk in PBS+0.05% Tween 20) at RT for 1 h and then incubated with primary antibodies; claudin-1 (JAY.8; Zymed), occludin (OC/3F10; Zymed) and GAPDH (FL-355; Santa Cruz). An HRP-linked secondary antibody (GE Healthcare) was used with ECL (GE Healthcare) to visualize bands by autoradiography with Kodak BioMax MR film. The pixel intensity of each band was estimated with Image J.
PHK were plated on glass coverslips at 2-3×10^5 cells/well in a 6-well plate or at 2-3×10^4 cells/filter in Transwell insert (Costar; PET membrane, 0.4 μm pore size, 6.5 mm insert) in Keratinocyte-SFM without antibiotics. […]

claudin-1 = test: Western blot of claudin-1 protein in primary human keratinocytes; type: cell-based; settings: PHK
Experimental: Human keratinocytes were isolated from neonatal foreskin. Poumay et al., “Basal Detachment of the Epidermis Using Dispase: Tissue Spatial Organization and Fate of Integrin Alpha 6 Beta 4 and Hemidesmosomes,” J. Invest. Dermatol. 102:111-7 (1994), which is hereby incorporated by reference in its entirety. PHK were cultured in Keratinocyte-SFM (Invitrogen/Gibco) with 1% Pen/Strep, 0.2% Amphotericin B (Invitrogen/Gibco). To differentiate PHK, cells were grown in DMEM (Invitrogen/Gibco) with 10% heat-inactivated fetal bovine serum (Invitrogen/Gibco) and 1% Pen/Strep, 0.2% Amphotericin B (Invitrogen/Gibco). For TJ modulation experiments, the following cytokines were added alone or in combination to the differentiation media; human IL-4 (50 ng/ml; R&D system) and IL-13 (50 ng/ml; R&D system).
as §1
PHK were plated on glass coverslips at 2-3×10^5 cells/well in a 6-well plate or at 2-3×10^4 cells/filter in Transwell insert (Costar; PET membrane, 0.4 μm pore size, 6.5 mm insert) in Keratinocyte-SFM without antibiotics. The next day after plating, cells were transfected with claudin-1 specific or control (scrambled) siRNAs (Santa Cruz) using Lipofectamine™ 2000 transfection Reagent (Invitrogen). TEER and permeability experiments were conducted 48 hours after PHK were switched to differentiation media.

[1] = system: primary human keratinocytes (PHK); test: Click-iT EdU proliferation assay in PHK; type: cell-based; settings: n=3

B1: CLDN1 siRNA: claudin-1 specific siRNA (Santa Cruz), a pool of 3 separate strands, SEQ ID NO: 10-15 (nucleic acid)
chain 1: UACAUAGGCAUAGUUCAUGNN
chain 2: CAUGAACUAUGCCUAUGUANN
chain 3: AACGUAUGCAGUUAAUUCCNN
chain 4: GGAAUUAACUGCAUACGUUNN
chain 5: UGAAGAUCUAUGUAUGUGGNN
chain 6: CCACAUACAUAGAUCUUCANN
modifications: chemistry not given here
FFU area (HSV-1 strain F): 15649±4367 pixels | HSV-1 focal forming units (HSV-1 strain F): 4.8±0.7 FFU/field | diameter of the major axis of FFU (HSV-1 strain F): 207±22 μm and 207±21 μm | occludin protein by Western blot (occludin): No change | claudin-1 protein by Western blot (claudin-1; CLDN1 siRNA, 48 h): dose-dependent reduction | decrease in claudin-1 protein expression compared to scrambled siRNA-transfected cells (claudin-1; dose-dependent): ≤ 60% | cell proliferation by Click-iT EdU assay ([1]; CLDN1 siRNA, PHK): enhanced cell proliferation | proliferating cells ([1]; claudin-1 depleted PHK): 21.6±1.4 EdU positive cells/hpf
